Reference: PMC10538664

These substances were tested against prototype SARS-CoV-2 tandem RBD homotrimer (PPP) (SARS-CoV-2) (UniProt P0DTC2) (assay: SPR).

Compared with REGN10933, C022 is 3-fold lower in Kd: 5.4 nM for the first, 1.8 nM for the second.

Going from S309 to CV07-270, the Kd rises from 0.4 nM to 11.7 nM (29-fold). The first binds more tightly here.

For CR3022, the Kd was 80.6 nM.
